Experimental findings from patent US20030096753A1 (published 2003) are described below.

What is called Kd is the equilibrium constant for the complex coming apart.

The target of test [1] is 7S NGF (complex of 2.5S (β-NGF) and γ NGF). The experiment in a line: cell-based or functional assay.
Test [2] concerns the target T1, Purified recombinant human NGF (human, UniProt P01138 122-241, limits assumed, radioiodinated with 125I (lactoperoxidase method) where used as tracer).
T1 construct: also called unlabeled human NGF
As to the kind of experiment: competitive binding assay, 125I-NGF on A875 cells; reference TrkAIg1,2. As for the experimental part:
(§1) The binding affinity of ¹²⁵I-NGF to the Ig-like domains of TrkA was determined by a competitive binding assay using the melanoma cell line A875 American Tissue Culture Collection (ATCC) which expresses the NGF receptor p75^NGFR.
(§2) Purified recombinant human NGF was radioiodinated with I¹²⁵ using a lactoperoxidase method and equilibrium binding with [¹²⁵I]-NGF was carried out (Treanor et al., 1991; Neuroscience Letters 121 p73-76). Briefly A875 cells (10⁶ per ml) were incubated with [¹²⁵I]-NGF (0.14 nM) and serial dilutions of unlabeled human NGF (concentration range: 10⁻⁶ M to 1×10⁻¹¹ M), TrkAIg1,2 (concentration range: 4×10⁻⁶ M to 1×10⁻¹¹ M) or TrkAIg2 (concentration range 5×10⁻⁶ M to 1×10 ⁻¹¹ M). Tubes were shaken vigorously at room temperature for 1 hr. 100 μl aliquots were then layered over 200 μl sucrose (0.15 M in binding buffer) in Beckman tubes. After centrifugation (15 seconds at 20,000 g) bound and free [¹²⁵I]-NGF were separated by freezing the tubes in liquid nitrogen and determining the bound [¹²⁵I]-NGF of the cell pellet. Binding reactions were carried out in triplicate. Counts were corrected for background and specific binding was between 85-87% of total binding. The competitive binding assay (FIG. 9) allowed estimation of the binding affinity of [¹²⁵I]-NGF to the recombinant TrkAIg2 protein. […]

The target of test [3] is NGF (source and species not stated; used in the BiaCore study and on PC12 cells). The experiment in a line: SPR (BiaCore-X), TrkAIg2 amine-coupled to the chip, NGF 40 nM to 500 nM as analyte, BiaEval 3.0 fit. As for the experimental part:
TrkAIg2 was covalently attached to the surface of the sensor chip by coupling with amine groups on TrkAIg2 to carboxyl groups on the surface using BiaCore Amine Coupling kit and varying concentrations of NGF passed over at a constant flow rate of 20 μl/min for two minutes. Data were collected for a range of NGF concentrations of 1 μM to 1 nM. […] However, data collected for the range 40 nM to 500 nM could be successfully evaluated.
Background: Surface plasmon resonance follows binding to a sensor surface in real time, without labels.

Test [4] deals with T1, Purified recombinant human NGF. As to the kind of experiment: competitive binding assay, 125I-NGF on A875 cells (p75NGFR), numerical fit. As for the experimental part: as §1, §2
Test [5] has the same target. The experiment in a line: displacement binding assays of the two Poros 20HQ peaks.

T1 sequence (P01138 122-241 limits assumed): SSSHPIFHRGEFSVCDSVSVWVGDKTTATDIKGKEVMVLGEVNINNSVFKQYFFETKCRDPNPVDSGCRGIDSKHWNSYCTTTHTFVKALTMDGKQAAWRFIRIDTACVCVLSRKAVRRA
Sequence of NGF (source and species not stated; used in the BiaCore study and on PC12 cells) (chain, as listed by the source): as the sequence (P01138 122-241 limits assumed) above
Sequence of 7S NGF (complex of 2.5S (β-NGF) and γ NGF) (P01139 122-241, one chain of several): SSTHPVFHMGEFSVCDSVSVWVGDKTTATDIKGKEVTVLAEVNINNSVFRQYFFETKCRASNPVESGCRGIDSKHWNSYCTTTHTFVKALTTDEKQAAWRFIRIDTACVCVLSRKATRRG

B1: TrkAIg2 (his TrkAIg2; TrkA Ig-like sub-domain 2 together with the proline rich region, amino acids 253-375; first, active peak from Poros 20HQ) (receptor)
chain: MGSSHHHHHHSSGLVPRGSHMPASVQLHTAVEMHHWCIPFSVDGQPAPSLRWLFNGSVLNETSFIFTEFLEPAANETVRHGCLRLNQPTHVNNGNYTLLAANPFGQASASIMAAFMDNPFEFNPEDPIPDTNSTSGDPVEKKDE
notes: The range 253-375 counts on the mature extracellular domain, not on the precursor; Removal of the His tag is not reported; also called TrkIg2; TrkAIg2 domain
For B1, in test [1], the “NGF-induced plasma extravasation in rat skin, co-injection” value is 10 fold excess. Further, the “fold IC50 against TrkAIg1,2” value in test [2] was 3 fold. The Kd in test [3] came to 11.8 nM.

B2: TrkAIg1,2 (the two immunoglobulin-like domains and proline-rich region of TrkA, amino acids 160-375) (receptor)
chain: MGSSHHHHHHSSGLVPRGSHMLEGVPTLKVQVPNASVDVGDDVLLRCQVEGRGLEQAGWILTELEQSATVMKSGGLPSLGLTLANVTSDLNRKNLTCWAENDVGRAEVSVQVNVSFPASVQLHTAVEMHHWCIPFSVDGQPAPSLRWLFNGSVLNETSFIFTEFLEPAANETVRHGCLRLNQPTHVNNGNYTLLAANPFGQASASIMAAFMDNPFEFNPEDPIPDTNSTSGDPVEKKDE
notes: The range counts on the mature extracellular domain; also called TrkAIg1,2 domain
Take B2: in test [4], the Kd stood at 3.3 nM.

B3: TrkAIg1 (his TrkAIg1; TrkA Ig-like sub-domain 1, amino acids 160-252) (receptor)
chain: MGSSHHHHHHSSGLVPRGSHMLEGVPTLKVQVPNASVDVGDDVLLRCQVEGRGLEQAGWILTELEQSATVMKSGGLPSLGLTLANVTSDLNRKNLTCWAENDVGRAEVSVQVNVSF
notes: Two peaks eluted from Poros 20HQ; both were tested in the displacement assay; also called first immunoglobulin-like domain
Regarding B3, the binding result in test [5] is “no binding”.
